In the test the target is GAL4-PGC-1β (yeast; mouse) (UniProt P04386). The test can be described thus: cell-based or functional assay.

As to Flag-tagged HCF, the transcriptional activity of PGC-1β in a cotransfection assay (luciferase, BOSC cells, FIG. 9A) worked out at 3 fold.

(Values after patent US20030124598A1.)
